Experimental data from US20250002577A1.

Tests used:
[1] = biological target: LILRB1 and LILRB2 on human primary myeloid cells (monocytes, M0 and M2c macrophages, mDCs, neutrophils); assay: flow cytometry, monocytes, AF647-labelled antibody, mean of two subjects
[2] = biological target: LILRB1 and LILRB2 on human primary myeloid cells (monocytes, M0 and M2c macrophages, mDCs, neutrophils); assay: flow cytometry, M0 macrophages, AF647-labelled antibody, mean of two subjects
[3] = biological target: LILRB1 and LILRB2 on human primary myeloid cells (monocytes, M0 and M2c macrophages, mDCs, neutrophils); assay: flow cytometry, M2c macrophages, AF647-labelled antibody, mean of two subjects

EC50 [1]: 0.823 µg/mL
EC50 [2]: 0.0937 µg/mL
EC50 [3]: 0.0862 µg/mL
B1: Comp 1 (anti-LILRB1 antibody) (antibody, human IgG1, kappa, V domains shown)
VH: QVQLKESGPGLVAPSQSLSITCTVSGFSLTNYGVSWVRQPPGKGLEWLGIIWGDGSTNYHSALISRLSISKDNSKSQVFLKLNSLQADDTATYYCAKPNWDTYAMDFWGQGTSVTVSS
VL: DIQMTQTTSSLSASLGDRVTISCRASQDISNFLNWYQQKPDGTVKLLIYCTSKLHSGVPSRFSGSGSETDYSLTISNLEQEDIATYFCQQGNTLPPTFGGGTKLEIIR
